Measured values as given in EP4471048A1, “PEPTIDE INHIBITORS OF INTERLEUKIN-23 RECEPTOR” (Zealand Pharma A/S, priority 2023, dated 2024).
*1 amine or outer side, *2 acyl side, *3 side chain or, on linkers, in order; H or OH if unused. Bridges are numbered along the chain shown (N, C = ends). [ ]: non-standard residue; d: D form. The star is where a group is joined. K(G) = Lys(Gly): lysine with a glycine on the side-chain amine, (2S)-2-amino-6-[(2-aminoacetyl)amino]hexanoic acid, O=C(CN[*:3])NCCCC[C@H](N[*:1])C(=O)[*:2]; γDab = iso-Dab: Dab joined to preceding residue by its side-chain amine, O=C([C@H](CCN[*:1])N[*:3])[*:2]; 2‑Amino‑6‑carboxyhexanoyl = 2-aminoheptanedioic acid residue; NH(4-(3-pyridyl)butyl) = c1cncc(CCCCN*)c1; NH(2-(3-pyridyl)ethyl) = c1cncc(CCN*)c1; Phe(4-Me) = Cc1ccc(C[C@H](N)C(=O)O)cc1; 2Nal = N[C@@H](Cc1ccc2ccccc2c1)C(=O)O; AEF = NCCOc1ccc(C[C@H](N)C(=O)O)cc1; 3Pal = N[C@@H](Cc1cccnc1)C(=O)O; β3hE = N[C@@H](CCC(=O)O)CC(=O)O; αMeL = CC(C)C[C@](C)(N)C(=O)O; dDab = NCC[C@@H](N)C(=O)O; Orn = NCCC[C@H](N)C(=O)O; Dab = NCC[C@H](N)C(=O)O; Aib = CC(C)(N)C(=O)O; βAla = NCCC(=O)O

T1: human IL-23R endogenously expressed on DB cells (human, UniProt Q5VWK5 24-629)
T1 sequence (looked up): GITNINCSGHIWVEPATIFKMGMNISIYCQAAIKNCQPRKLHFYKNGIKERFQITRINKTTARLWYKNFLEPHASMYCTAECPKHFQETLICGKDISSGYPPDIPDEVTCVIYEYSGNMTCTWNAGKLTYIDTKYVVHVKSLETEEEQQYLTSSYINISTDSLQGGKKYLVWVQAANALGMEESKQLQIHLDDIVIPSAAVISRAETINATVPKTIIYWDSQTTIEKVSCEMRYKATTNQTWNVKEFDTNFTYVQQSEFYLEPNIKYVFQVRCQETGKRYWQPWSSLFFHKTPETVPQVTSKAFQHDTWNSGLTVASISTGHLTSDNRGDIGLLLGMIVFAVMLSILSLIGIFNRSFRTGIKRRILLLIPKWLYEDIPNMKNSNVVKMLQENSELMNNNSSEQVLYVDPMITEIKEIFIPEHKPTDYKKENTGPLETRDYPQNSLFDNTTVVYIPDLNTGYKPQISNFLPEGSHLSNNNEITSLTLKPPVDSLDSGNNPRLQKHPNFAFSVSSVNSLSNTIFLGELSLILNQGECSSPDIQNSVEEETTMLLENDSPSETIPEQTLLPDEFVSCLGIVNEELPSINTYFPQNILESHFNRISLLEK

T2: Nluc-IL23R fusion protein (human, UniProt Q5VWK5 22-629)
T2 construct: range 22-629; Stably expressed in HEK293 cells; also called hIL-23R; human IL-23R; not shown: Nanoluc protein (N1371, Promega) at the N-terminus, after a secretion signal
T2 sequence (looked up): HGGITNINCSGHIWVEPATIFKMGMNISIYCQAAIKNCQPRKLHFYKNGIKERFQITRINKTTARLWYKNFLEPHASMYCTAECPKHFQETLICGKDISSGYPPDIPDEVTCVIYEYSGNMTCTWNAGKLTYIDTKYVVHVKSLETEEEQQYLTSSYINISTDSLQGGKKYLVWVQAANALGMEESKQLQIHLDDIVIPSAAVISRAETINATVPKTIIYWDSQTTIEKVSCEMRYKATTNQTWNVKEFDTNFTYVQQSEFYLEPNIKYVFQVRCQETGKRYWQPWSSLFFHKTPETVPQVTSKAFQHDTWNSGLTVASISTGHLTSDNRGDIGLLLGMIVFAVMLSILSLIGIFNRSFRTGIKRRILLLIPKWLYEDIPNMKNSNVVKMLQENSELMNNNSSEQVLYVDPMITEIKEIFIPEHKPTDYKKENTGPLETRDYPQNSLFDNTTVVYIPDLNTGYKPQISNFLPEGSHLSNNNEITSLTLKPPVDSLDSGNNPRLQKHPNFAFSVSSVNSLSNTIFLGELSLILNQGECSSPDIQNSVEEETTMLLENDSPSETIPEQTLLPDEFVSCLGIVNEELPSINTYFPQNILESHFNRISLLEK

B1: Compound 17 (peptide)
peptide: KIVWQE[Phe(4-Me)][2Nal][Aib]E[Dab][3Pal]-NH2
modifications: lactam 1-10, N-6
SMILES: CC[C@H](C)[C@@H]1NC(=O)[C@@H]2CCCCNC(=O)CC[C@@H](C(=O)N[C@@H](CCN)C(=O)N[C@@H](Cc3cccnc3)C(N)=O)NC(=O)C(C)(C)NC(=O)[C@H](Cc3ccc4ccccc4c3)NC(=O)[C@H](Cc3ccc(C)cc3)NC(=O)[C@H](CCC(=O)N2)NC(=O)[C@H](CCC(N)=O)NC(=O)[C@H](Cc2c[nH]c3ccccc23)NC(=O)[C@H](C(C)C)NC1=O
B2: Compound 3 (peptide)
peptide: [dK]TVWQD[AEF][2Nal][αMeL]E[Dab][3Pal]-NH2
modifications: lactam 1-10, N-6
SMILES: CC(C)C[C@]1(C)NC(=O)[C@H](Cc2ccc3ccccc3c2)NC(=O)[C@H](Cc2ccc(OCCN)cc2)NC(=O)[C@@H]2CC(=O)N[C@H](CCCCNC(=O)CC[C@@H](C(=O)N[C@@H](CCN)C(=O)N[C@@H](Cc3cccnc3)C(N)=O)NC1=O)C(=O)N[C@@H]([C@@H](C)O)C(=O)N[C@@H](C(C)C)C(=O)N[C@@H](Cc1c[nH]c3ccccc13)C(=O)N[C@@H](CCC(N)=O)C(=O)N2
B3: Compound 45 (peptide)
peptide: K[βAla]WQE[AEF][2Nal][αMeL]E[Dab][3Pal]-NHMe
modifications: lactam 1-9, N-5
SMILES: CNC(=O)[C@H](Cc1cccnc1)NC(=O)[C@H](CCN)NC(=O)[C@@H]1CCC(=O)NCCCC[C@@H]2NC(=O)CC[C@H](NC(=O)[C@H](CCC(N)=O)NC(=O)[C@H](Cc3c[nH]c4ccccc34)NC(=O)CCNC2=O)C(=O)N[C@@H](Cc2ccc(OCCN)cc2)C(=O)N[C@@H](Cc2ccc3ccccc3c2)C(=O)N[C@@](C)(CC(C)C)C(=O)N1
B4: Compound 44 (peptide)
peptide: KGWQE[AEF][2Nal][αMeL]E[Dab][3Pal]-NHMe
modifications: lactam 1-9, N-5
SMILES: CNC(=O)[C@H](Cc1cccnc1)NC(=O)[C@H](CCN)NC(=O)[C@@H]1CCC(=O)NCCCC[C@@H]2NC(=O)CC[C@H](NC(=O)[C@H](CCC(N)=O)NC(=O)[C@H](Cc3c[nH]c4ccccc34)NC(=O)CNC2=O)C(=O)N[C@@H](Cc2ccc(OCCN)cc2)C(=O)N[C@@H](Cc2ccc3ccccc3c2)C(=O)N[C@@](C)(CC(C)C)C(=O)N1
B5: Compound 36 (peptide)
peptide: KTWQE[AEF][2Nal][αMeL]E[Dab][3Pal]-NHMe
modifications: lactam 1-9, N-5
SMILES: CNC(=O)[C@H](Cc1cccnc1)NC(=O)[C@H](CCN)NC(=O)[C@@H]1CCC(=O)NCCCC[C@@H]2NC(=O)CC[C@H](NC(=O)[C@H](CCC(N)=O)NC(=O)[C@H](Cc3c[nH]c4ccccc34)NC(=O)[C@H]([C@@H](C)O)NC2=O)C(=O)N[C@@H](Cc2ccc(OCCN)cc2)C(=O)N[C@@H](Cc2ccc3ccccc3c2)C(=O)N[C@@](C)(CC(C)C)C(=O)N1
B6: Compound 39 (peptide)
peptide: ETWQE[AEF][2Nal][αMeL]K[Dab][3Pal]-NHMe
modifications: lactam 1-9, N-5
SMILES: CNC(=O)[C@H](Cc1cccnc1)NC(=O)[C@H](CCN)NC(=O)[C@@H]1CCCCNC(=O)CC[C@@H]2NC(=O)CC[C@H](NC(=O)[C@H](CCC(N)=O)NC(=O)[C@H](Cc3c[nH]c4ccccc34)NC(=O)[C@H]([C@@H](C)O)NC2=O)C(=O)N[C@@H](Cc2ccc(OCCN)cc2)C(=O)N[C@@H](Cc2ccc3ccccc3c2)C(=O)N[C@@](C)(CC(C)C)C(=O)N1
B7: Compound 2 (peptide)
peptide: KTVWQE[AEF][2Nal][αMeL]E[Dab][3Pal]-NH2
modifications: lactam 1-10, N-6
SMILES: CC(C)C[C@]1(C)NC(=O)[C@H](Cc2ccc3ccccc3c2)NC(=O)[C@H](Cc2ccc(OCCN)cc2)NC(=O)[C@@H]2CCC(=O)N[C@@H](CCCCNC(=O)CC[C@@H](C(=O)N[C@@H](CCN)C(=O)N[C@@H](Cc3cccnc3)C(N)=O)NC1=O)C(=O)N[C@@H]([C@@H](C)O)C(=O)N[C@@H](C(C)C)C(=O)N[C@@H](Cc1c[nH]c3ccccc13)C(=O)N[C@@H](CCC(N)=O)C(=O)N2
B8: Compound 46 (peptide)
peptide: [K(G)]WQE[AEF][2Nal][αMeL]E[Dab][3Pal]-NHMe
modifications: lactam 1-8, N-4
SMILES: CNC(=O)[C@H](Cc1cccnc1)NC(=O)[C@H](CCN)NC(=O)[C@@H]1CCC(=O)NCC(=O)NCCCC[C@@H]2NC(=O)CC[C@H](NC(=O)[C@H](CCC(N)=O)NC(=O)[C@H](Cc3c[nH]c4ccccc34)NC2=O)C(=O)N[C@@H](Cc2ccc(OCCN)cc2)C(=O)N[C@@H](Cc2ccc3ccccc3c2)C(=O)N[C@@](C)(CC(C)C)C(=O)N1
B9: Compound 107 (peptide)
peptide: EWQEXXXXXX
modifications: [iso-Glu](1c)^‡(6c)^†WQE(6c)[Y(2-aminoethoxy)][2-Nal][2-Me-Leu][Dab](1c)[Dab][3-(3-Pyridyl)-Ala]-[NHMe]; (1c) [2,11] lactam; (6c) [2,7] lactam; ^† alpha-amine in bridge; ^‡ alpha-carboxylic acid in bridge
B10: Compound 31 (peptide)
peptide: KSVWQE[AEF][2Nal]GE-{NH(4-(3-pyridyl)butyl)}
modifications: lactam 1-10, N-6
SMILES: CC(C)[C@@H]1NC(=O)[C@H](CO)NC(=O)[C@@H]2CCCCNC(=O)CC[C@@H](C(=O)NCCCCc3cccnc3)NC(=O)CNC(=O)[C@H](Cc3ccc4ccccc4c3)NC(=O)[C@H](Cc3ccc(OCCN)cc3)NC(=O)[C@H](CCC(=O)N2)NC(=O)[C@H](CCC(N)=O)NC(=O)[C@H](Cc2c[nH]c3ccccc23)NC1=O
B11: Compound 25 (peptide)
peptide: KTVWQE[Phe(4-Me)][2Nal][αMeL][γDab](6‑(3-pyridyl)hexanoyl)
modifications: lactam 1-C, N-6; also: iso-Dab joined to preceding residue via its side-chain amine
B12: Compound 61 (peptide)
peptide: KIVWQE[AEF][2Nal][αMeL][β3hE][3Pal]-NHMe
modifications: lactam 1-10, N-6
notes: The partner of the (1c) bridge is printed as (cyclo1)
B13: Compound 74 (peptide)
peptide: EIVWQEXXXXXX
modifications: E(1c)(6c)^†IVWQE(6c)[Y(2-aminoethoxy)][2-Nal][2-Me-Leu][K(Me)](1c)[Dab][3-(3-Pyridyl)-Ala]-[NHMe]; (1c) [2,11] lactam; (6c) [2,7] lactam; ^† alpha-amine in bridge

Target: T1, human IL-23R endogenously expressed on …
Test: cell-based or functional assay

Row | Binder | hIL-23 (pSTAT3) antagonist % inhibition [%] | hIL-23 (pSTAT3) antagonist IC50 [nM]
1 | B1 | 99 | 2.9
2 | B2 | 101 | 1.5
3 | B3 | 100 | 0.058
4 | B4 | 100 | 15
5 | B5 | 97 | 1.1
6 | B6 | 99 | 2.4
7 | B7 | 99 | 0.11
8 | B8 | 102 | 25

Target: T2, Nluc-IL23R fusion protein
Test: BRET competition vs TAMRA-labelled peptide, Nluc-IL23R membranes

Row | Binder | % displacement [%] | IC50 [nM]
9 | B1 | 107 | 0.092
10 | B2 | 105 | –
11 | B3 | 100 | –
12 | B4 | 100 | –
13 | B5 | 100 | –
14 | B6 | 98 | –
15 | B7 | 100 | –
16 | B8 | 104 | –

Target: T2, Nluc-IL23R fusion protein
Test: as above
Remark: another data set of the same source

Row | Binder | % displacement [%] | IC50 [nM]
17 | KIVWQE[AEF][2Nal][αMeL][β3hE]-{NH(2-(3-pyridyl)ethyl)} (lactam 1-10, N-6) [Compound 65] | 99 | –
18 | [dDab]TWQD[AEF][2Nal][αMeL][2‑Amino‑6‑carboxyhexanoyl][Dab][3Pal]-NH2 (lactam 1-9, N-5) [Compound 15] | 105 | 4.9
19 | B9 | 97 | 14
20 | B10 | 98 | 49
21 | [dDab]TVWQD[AEF][2Nal][αMeL][2‑Amino‑6‑carboxyhexanoyl][Dab][3Pal]-NH2 (lactam 1-10, N-6) [Compound 9] | 103 | –
22 | B11 | 91 | 840
23 | ETWQE[AEF][2Nal][αMeL][Orn][Dab][3Pal]-NHMe (lactam 1-9, N-5) [Compound 40] | 100 | –
24 | B12 | 99 | –
25 | B13 | 99 | 0.076
